Test results from IntAct's records for PubMed 31515488.

B1: Tektin-3 (Homo sapiens), Q9BXF9 (parent)
chain: MERVGCTLTTTYAHPRPTPTNFLPAISTMASSYRDRFPHSNLTHSLSLPWRPSTYYKVASNSPSVAPYCTRSQRVSENTMLPFVSNRTTFFTRYTPDDWYRSNLTNYQESNTSRHNSEKLRVDTSRLIQDKYQQTRKTQADTTQNLGERVNDIGFWKSEIIHELDEMIGETNALTDVKKRLERALMETEAPLQVARECLFHREKRMGIDLVHDEVEAQLLTEVDTILCCQERMKLHLDKAIAQLAANRASQHELEKDLSDKQTAYRIDDKCHHLRNTSDGVGYFRGVERVDATVSVPESWAKFTDDNILRSQSERAASAKLRDDIENLLVVTANEMWNQFNKVNLSFTNRIAETADAKNKIQTHLAKTLQEIFQTEMTIESIKKAIKDKTAFLKVAQTRLDERTRRPNIELCRDMAQLRLVNEVHEVDDTIQTLQQRLRDAEDTLQSLVHIKATLEYDLAVKANSLYIDQEKCMSMRKSYPNTLRLVGFC
partner: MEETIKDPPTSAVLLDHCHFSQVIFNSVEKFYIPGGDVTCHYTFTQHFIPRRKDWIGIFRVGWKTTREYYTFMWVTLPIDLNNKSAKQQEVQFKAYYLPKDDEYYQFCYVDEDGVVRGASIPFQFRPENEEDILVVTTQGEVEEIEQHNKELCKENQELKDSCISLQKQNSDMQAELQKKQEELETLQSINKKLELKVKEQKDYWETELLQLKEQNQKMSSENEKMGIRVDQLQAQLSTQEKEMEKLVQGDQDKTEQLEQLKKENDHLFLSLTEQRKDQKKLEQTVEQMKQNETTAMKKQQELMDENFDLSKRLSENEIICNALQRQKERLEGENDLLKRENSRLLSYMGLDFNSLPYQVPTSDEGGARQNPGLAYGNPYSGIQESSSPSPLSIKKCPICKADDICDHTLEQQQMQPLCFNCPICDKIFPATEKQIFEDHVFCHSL
B2: Nebulette (Homo sapiens), O76041 (parent)
chain: MRVPVFEDIKDETEEEKIGEEENEEDQVFYKPVIEDLSMELARKCTELISDIRYKEEFKKSKDKCTFVTDSPMLNHVKNIGAFISEAKYKGTIKADLSNSLYKRMPATIDSVFAGEVTQLQSEVAYKQKHDAAKGFSDYAHMKEPPEVKHAMEVNKHQSNISYRKDVQDTHTYSAELDRPDIKMATQISKIISNAEYKKGQGIMNKEPAVIGRPDFEHAVEASKLSSQIKYKEKFDNEMKDKKHHYNPLESASFRQNQLAATLASNVKYKKDIQNMHDPVSDLPNLLFLDHVLKASKMLSGREYKKLFEENKGMYHFDADAVEHLHHKGNAVLQSQVKYKEEYEKNKGKPMLEFVETPSYQASKEAQKMQSEKVYKEDFEKEIKGRSSLDLDKTPEFLHVKYITNLLREKEYKKDLENEIKGKGMELNSEVLDIQRAKRASEMASEKEYKKDLESIIKGKGMQAGTDTLEMQHAKKAAEIASEKDYKRDLETEIKGKGMQVSTDTLDVQRAKKASEMASQKQYKKDLENEIKGKGMQVSMDIPDILRAKRTSEIYSQRKYKDEAEKMLSNYSTIADTPEIQRIKTTQQNISAVFYKKEVGAGTAVKDSPEIERVKKNQQNISSVKYKEEIKHATAISDPPELKRVKENQKNISNLQYKEQNYKATPVSMTPEIERVRRNQEQLSAVKYKGELQRGTAISDPPELKRAKENQKNISNVYYRGQLGRATTLSVTPEMERVKKNQENISSVKYTQDHKQMKGRPSLILDTPAMRHVKEAQNHISMVKYHEDFEKTKGRGFTPVVDDPVTERVRKNTQVVSDAAYKGVHPHIVEMDRRPGIIVDLKVWRTDPGSIFDLDPLEDNIQSRSLHMLSEKASHYRRHWSRSHSSSTFGTGLGDDRSEISEIYPSFSCCSEVTRPSDEGAPVLPGAYQQSHSQGYGYMHQTSVSSMRSMQHSPNLRTYRAMYDYSAQDEDEVSFRDGDYIVNVQPIDDGWMYGTVQRTGRTGMLPANYIEFVN
B3: MTRF1L release factor glutamine methyltransferase (Homo sapiens), Q9Y5R4 (parent)
chain: MELWGRMLWALLSGPGRRGSTRGWAFSSWQPQPPLAGLSSAIELVSHWTGVFEKRGIPEARESSEYIVAHVLGAKTFQSLRPALWTQPLTSQQLQCIRELSSRRLQRMPVQYILGEWDFQGLSLRMVPPVFIPRPETEELVEWVLEEVAQRSHAVGSPGSPLILEVGCGSGAISLSLLSQLPQSRVIAVDKREAAISLTHENAQRLRLQDRIWIIHLDMTSERSWTHLPWGPMDLIVSNPPYVFHQDMEQLAPEIRSYEDPAALDGGEEGMDIITHILALAPRLLKDSGSIFLEVDPRHPELVSSWLQSRPDLYLNLVAVRRDFCGRPRFLHIRRSGP
partner: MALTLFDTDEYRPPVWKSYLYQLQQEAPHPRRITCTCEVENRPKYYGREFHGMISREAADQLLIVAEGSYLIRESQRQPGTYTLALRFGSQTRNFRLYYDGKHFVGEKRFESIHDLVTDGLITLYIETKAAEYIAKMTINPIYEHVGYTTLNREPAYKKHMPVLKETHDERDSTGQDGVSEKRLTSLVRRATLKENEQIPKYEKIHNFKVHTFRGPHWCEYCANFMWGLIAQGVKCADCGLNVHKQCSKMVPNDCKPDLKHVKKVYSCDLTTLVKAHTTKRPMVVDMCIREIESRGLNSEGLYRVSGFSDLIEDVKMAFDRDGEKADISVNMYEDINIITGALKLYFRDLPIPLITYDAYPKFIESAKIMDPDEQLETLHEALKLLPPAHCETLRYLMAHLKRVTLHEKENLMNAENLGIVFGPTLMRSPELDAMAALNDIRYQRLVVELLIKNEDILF
B4: Progranulin (Homo sapiens), P28799 (parent)
chain: MWTLVSWVALTAGLVAGTRCPDGQFCPVACCLDPGGASYSCCRPLLDKWPTTLSRHLGGPCQVDAHCSAGHSCIFTVSGTSSCCPFPEAVACGDGHHCCPRGFHCSADGRSCFQRSGNNSVGAIQCPDSQFECPDFSTCCVMVDGSWGCCPMPQASCCEDRVHCCPHGAFCDLVHTRCITPTGTHPLAKKLPAQRTNRAVALSSSVMCPDARSRCPDGSTCCELPSGKYGCCPMPNATCCSDHLHCCPQDTVCDLIQSKCLSKENATTDLLTKLPAHTVGDVKCDMEVSCPDGYTCCRLQSGAWGCCPFTQAVCCEDHIHCCPAGFTCDTQKGTCEQGPHQVPWMEKAPAHLSLPDPQALKRDVPCDNVSSCPSSDTCCQLTSGEWGCCPIPEAVCCSDHQHCCPQGYTCVAEGQCQRGSEIVAGLEKMPARRASLSHPRDIGCDQHTSCPVGQTCCPSLGGSWACCQLPHAVCCEDRQHCCPAGYTCNVKARSCEKEVVSAQPATFLARSPHVGVKDVECGEGHFCHDNQTCCRDNRQGWACCPYRQGVCCADRRHCCPAGFRCAARGTKCLRREAPRWDAPLRDPALRQLL
partner: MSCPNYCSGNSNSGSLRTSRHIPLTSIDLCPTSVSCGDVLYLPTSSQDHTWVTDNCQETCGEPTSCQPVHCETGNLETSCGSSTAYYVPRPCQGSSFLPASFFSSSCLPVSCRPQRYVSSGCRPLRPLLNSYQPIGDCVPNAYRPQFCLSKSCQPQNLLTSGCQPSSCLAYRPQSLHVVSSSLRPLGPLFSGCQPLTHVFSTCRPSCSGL

Variants of: B1
Conditions: with caco2_human CALCOCO2, Q13137

effect of a mutation on the interaction	Variant
with no effect	Q129K
with no effect	G282A

Variants of: B2
Conditions: with traf2_human TRAF2, Q12933
traf2_human TRAF2, Q12933, sequence (Q12933 whole entry): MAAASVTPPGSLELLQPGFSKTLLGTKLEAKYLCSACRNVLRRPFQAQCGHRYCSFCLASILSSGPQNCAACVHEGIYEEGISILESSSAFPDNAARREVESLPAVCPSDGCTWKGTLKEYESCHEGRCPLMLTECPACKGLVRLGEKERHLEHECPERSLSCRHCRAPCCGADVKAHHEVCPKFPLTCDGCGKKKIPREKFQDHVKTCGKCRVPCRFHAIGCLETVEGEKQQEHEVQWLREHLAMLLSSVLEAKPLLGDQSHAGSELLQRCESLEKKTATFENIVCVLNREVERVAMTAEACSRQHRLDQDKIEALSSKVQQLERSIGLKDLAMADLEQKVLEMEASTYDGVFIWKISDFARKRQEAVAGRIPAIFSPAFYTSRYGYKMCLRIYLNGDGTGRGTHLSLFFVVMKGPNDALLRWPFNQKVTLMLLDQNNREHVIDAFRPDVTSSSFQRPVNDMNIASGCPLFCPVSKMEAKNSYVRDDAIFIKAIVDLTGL

effect of a mutation on the interaction	Variant
with no effect	M351V
with no effect	R613Q

Variants of: B2
Conditions: with cc136_human CCDC136, Q96JN2
cc136_human CCDC136, Q96JN2, sequence (Q96JN2 whole entry): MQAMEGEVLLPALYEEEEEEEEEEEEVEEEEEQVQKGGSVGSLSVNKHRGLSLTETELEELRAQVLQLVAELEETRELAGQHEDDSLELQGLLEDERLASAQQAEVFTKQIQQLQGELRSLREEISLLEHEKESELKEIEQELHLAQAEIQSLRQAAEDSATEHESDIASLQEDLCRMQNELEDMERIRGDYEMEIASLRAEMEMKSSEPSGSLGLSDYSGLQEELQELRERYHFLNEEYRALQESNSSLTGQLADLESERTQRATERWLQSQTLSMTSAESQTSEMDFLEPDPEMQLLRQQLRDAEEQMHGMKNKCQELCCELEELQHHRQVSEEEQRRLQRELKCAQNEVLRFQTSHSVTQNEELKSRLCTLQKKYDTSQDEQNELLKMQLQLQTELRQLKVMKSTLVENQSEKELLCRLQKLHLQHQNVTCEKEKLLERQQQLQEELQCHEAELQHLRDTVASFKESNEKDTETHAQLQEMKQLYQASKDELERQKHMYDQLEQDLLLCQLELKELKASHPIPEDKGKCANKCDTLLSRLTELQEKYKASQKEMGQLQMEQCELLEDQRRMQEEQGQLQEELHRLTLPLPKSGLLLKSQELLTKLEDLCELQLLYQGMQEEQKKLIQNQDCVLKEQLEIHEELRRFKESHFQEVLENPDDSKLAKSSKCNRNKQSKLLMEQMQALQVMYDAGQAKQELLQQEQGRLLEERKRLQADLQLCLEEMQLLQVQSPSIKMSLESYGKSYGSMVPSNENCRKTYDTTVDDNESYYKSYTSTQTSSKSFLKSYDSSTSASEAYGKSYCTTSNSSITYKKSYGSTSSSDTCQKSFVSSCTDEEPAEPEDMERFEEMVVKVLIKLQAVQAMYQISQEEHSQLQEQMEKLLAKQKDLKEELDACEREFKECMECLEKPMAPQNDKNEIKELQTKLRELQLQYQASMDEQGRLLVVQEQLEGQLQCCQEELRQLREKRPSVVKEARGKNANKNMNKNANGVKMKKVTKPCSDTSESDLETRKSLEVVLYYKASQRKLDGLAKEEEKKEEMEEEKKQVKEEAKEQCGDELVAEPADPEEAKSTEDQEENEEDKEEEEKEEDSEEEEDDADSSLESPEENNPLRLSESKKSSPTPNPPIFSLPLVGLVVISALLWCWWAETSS

effect of a mutation on the interaction	Variant
with no effect	M351V
with no effect	R613Q

Variants of: B2
Conditions: with traf1_human TRAF1, Q13077
traf1_human TRAF1, Q13077, sequence (Q13077 whole entry): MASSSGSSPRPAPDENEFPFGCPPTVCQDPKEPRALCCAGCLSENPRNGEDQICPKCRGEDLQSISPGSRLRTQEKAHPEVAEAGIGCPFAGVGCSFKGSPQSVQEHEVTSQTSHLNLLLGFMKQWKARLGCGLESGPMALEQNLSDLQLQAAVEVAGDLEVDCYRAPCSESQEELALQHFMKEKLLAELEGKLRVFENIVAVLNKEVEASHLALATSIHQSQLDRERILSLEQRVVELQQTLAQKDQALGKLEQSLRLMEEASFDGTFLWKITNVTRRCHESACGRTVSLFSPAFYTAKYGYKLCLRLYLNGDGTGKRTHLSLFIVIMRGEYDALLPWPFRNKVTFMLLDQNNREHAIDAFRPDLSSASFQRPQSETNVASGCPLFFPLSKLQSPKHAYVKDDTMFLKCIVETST

effect of a mutation on the interaction	Variant
with no effect	M351V
with no effect	R613Q

Variants of: B3
Conditions: with chin_human CHN1, P15882

effect of a mutation on the interaction	Variant
disrupting interaction strength	H200Q

Variants of: B4
Conditions: with kr261_human KRTAP26-1, Q6PEX3

effect of a mutation on the interaction	Variant
with no effect	R433W
with no effect	D536E
with no effect	G515A
